According to the supplement of paper PMC9170038:

Tested on: MS2 coat protein
Experiment: apparent KD of MS2 coat protein; designed switch direction (-1 OFF switch, 1 ON switch): -1; higher = weaker reporter binding
Method in brief: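 Apparent KD, taken as the median over clusters for each design, was obtained by curve-fitting normalised cluster fluorescence. Designed RNA switches had been transcribed on Illumina chips by stalled E. coli RNA polymerase and titrated with SNAP-549-labelled MS2 coat protein, doubling from 0.7 or 1.5 nM to 3 µM.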

[1] = input ligand: microRNA oligo, concentration not stated
[2] = Eterna round: R95, input ligand: microRNA oligo, concentration not stated
[3] = Eterna round: R95, input ligand: FMN 200 uM
[4] = Eterna round: R95, input ligand: none

Row | Sequence | apparent KD of MS2 coat protein (input ligand: FMN 200 uM) [nM] | apparent KD of MS2 coat protein [1] [nM] | apparent KD of MS2 coat protein (input ligand: none) [nM] | apparent KD of MS2 coat protein [2] [nM] | apparent KD of MS2 coat protein [3] [nM] | apparent KD of MS2 coat protein [4] [nM]
1 | UUGUCGUGUGUAGGAUAUCGUUGGCGUUCGCCGCGAGAAGGACAUGAGGAUCACCCAUGUGCGUCAGGGUCGUCCACAGGUGAU [-27/-25 Kcal and A 19%] (Eterna round: R96, puzzle: Exclusion NG 1) | 663 | 281 | 371 |  |  | 
2 | UCCAAACAUGAGGAUCACCCAUGUGAGGAUAUGAUACUAUGUACUUCGGUACAUAGUAUCAGAAGGCACAUCCA [Ex1-3: 10] (puzzle: Exclusion 1) |  |  |  | 13.4 |  | 
3 | GUUUCACAUGAGGAUCACCCAUGUGAGGAUAUGGAUUCGAUAGAAGUAGAAGAUGGAUCCAGAAGGCGCGUGAC [JR_Ex1_Sub078] (Eterna round: R97, puzzle: Exclusion 1) | 35.3 |  | 36.4 |  |  | 
4 | AUAUCCAGAGGAUAUCCGCACGGACACAUGAGGAUCACCCAUGUUUUCAUGAACGUUGCCGGAGAAGGCUGAGGAA [Eternabot (Original) Solution 10] (Eterna round: R97, puzzle: Exclusion 5) | 79.7 |  | 69.7 |  |  | 
5 | AUCAAAUUAAAUACAGAUCACAUGAGGAUCACCCAUGUCGUACGAGUGCAGAUCUUUGAAGCUGGCUCGUCUAAGUG [Eternabot (L2) Solution 21] (Eterna round: R97, puzzle: Sensor, turn-off variant 1) | 154 |  | 165 |  |  | 
6 | CUUUUGUGAGGAUAUUGGUAGUAAAUAAAUAAAAUUAUUACCGAGAAGGCACAUGAGGAUCACCCAUGUUCCUC [Salish 062 v17] (Eterna round: R97, puzzle: Exclusion 4) | 823 |  | 50.7 |  |  | 
7 | AAUUUGUCAGGAUAUUGUUAGUUUAGUUGUUUGUAUUAGUUCGAGAAGGGACAUGAGGAUCACCCAUGUGAAAA [Ex4 #70] (Eterna round: R97, puzzle: Exclusion 4) | 39.2 |  | 53.4 |  |  | 
8 | UUUUUCAGGCCAGAUCCUCACAUGAGGAUCACCCAUGUGCUCGUCUGUUUUCGCACUAUCUUUUUUUUGAUAGUGCU [Level Boss var2-13] (puzzle: Sensor v3, turn-off variant 1) |  |  |  | 26.8 | 291 | 309
9 | GUCAUGUAAGGAUAUCUUACAUGUGACUUCGGUCACUGUCGAGAGAAGGUACAUGAGGAUCACCCAUGUUCGAC [Ex4-3: 53] (puzzle: Exclusion 4) |  |  |  | 15.6 |  | 
10 | UAAUAUCUGUAGGAUAUCAGUGGAGCACACGUAUGAGAAGGGCAGACAUGAGGAUCACCCAUGUAUAGGGUCCG [BotMod 5 - Jieux - Exclusion 6] (Eterna round: R97, puzzle: Exclusion 6) | 38.7 |  | 29.3 |  |  | 
11 | UCUUAUUGCAAGGAUAUGCAAAUUAUUAUUAAUGCAGAAGGUGCUACAUGAGGAUCACCCAUGUUUCCGGGAAA [JR_E6_Sub041] (puzzle: Exclusion 6) |  |  |  | 31.6 | 66.6 | 31.5
12 | UGCAUGCUAGGAUAUGCCGAGGAGAACAUGAGGAUCACCCAUGUGACCCGGAUGCCUUGAGCAGAAGGAGCUACUA [EX5 C.19] (Eterna round: R97, puzzle: Exclusion 5) | 22.4 |  | 15.2 |  |  | 
13 | UGAGAACAUGAGGAUCACCCAUGUAAGGAUAUGCGAAGAGUUCGGAGAGGUUGAGGAGGCAGAAGGUACAGGAG [JR_Exclu1_Sub043] (puzzle: Exclusion 1) |  |  |  | 35.8 | 46.8 | 58.7
14 | AAUAAUGGAGGAUAUACUAAAAUAUGAAUAAAAUAAAUAAAACAUGAGGAUCACCCAUGUAGAAGGCCAAAUAA [JMF's Not so obvious solution 2] (puzzle: Exclusion 2) |  |  |  | 22.7 | 20.9 | 27.7
15 | UCCUCACAUGAGGAUCACCCAUGUCAGGAUAUACAAGAAAAUAACCGGAAAGACCGGAGUAGAAGGGACAUAAG [Beleonrala] (puzzle: Exclusion 1) |  |  |  | 16.1 | 31.6 | 16.1
16 | UGUAACCUAGGAUAUACAUGAGGAUCACCCAUGUAAUGUAGUAUAGUGUGUGUAAGGUGUAGAAGGAGGAAUGU [LRO-Excl05-23-Smart Aleck] (Eterna round: R97, puzzle: Exclusion 3) | 76.2 |  | 52.6 |  |  | 
17 | AUAAUAAAGGAGGAUAUCGUUUCGGAAACGAAACGAGAAGGUCUAACAUGAGGAUCACCCAUGUUCCUCAAAUA [Mat - Exclusion 6 - Eli Mod - D52] (puzzle: Exclusion 6) |  |  |  | 33.3 | 66.4 | 53.5

Row | Sequence | apparent KD of MS2 coat protein (input ligand: FMN 200 uM) [nM] | apparent KD of MS2 coat protein [1] [nM] | apparent KD of MS2 coat protein (input ligand: none) [nM] | apparent KD of MS2 coat protein [2] [nM] | apparent KD of MS2 coat protein [3] [nM] | apparent KD of MS2 coat protein [4] [nM]
18 | CCGGAAGUACAGGAUAUCGUAACGGAGACGUUACGAGAAGGGUAUACAUGAGGAUCACCCAUGUGUCCUACCGG [Mat - Exclusion 6 - Eli Mod - D94] (puzzle: Exclusion 6) |  |  |  | 22 | 33.8 | 32.2
19 | CGGUGCUGAGGAUAUACAUGAGGAUCACCCAUGUGUUCUUGCUAGAAAACUGGCAGAUGUAGAAGGCGGUACUG [Mat - Exclusion 3 - Mod of JL D98] (puzzle: Exclusion 3) |  |  |  | 35.4 | 285 | 36.6
20 | AGUACUAACACGAAGGUGUUAGUACAAUAAGCUUGUGAAACAUGAGGAUCACCCAUGUCCUCAUAAGCUCGUCUUAU [salish99_TOv2_r3_033] (puzzle: Sensor v3, turn-off variant 2) |  |  |  | 702 | 17.5 | 17.6
21 | GUUAGACAUGAGGAUCACCCAUGUGAGGAUAUGAUGCGAAUAAAGAAUGAAGUAAGCAUCAGAAGGCACAUAUG [Mat - Mod of Hyphema D30] (puzzle: Exclusion 1) |  |  |  | 235 |  | 
22 | GAUCAUGCAGGAUAUACAGUUUCCAUGAAAACAUGGACCUCACAUGAGGAUCACCCAUGUAGAAGGGCAUGAUC [Omei Ex2 A27] (Eterna round: R97, puzzle: Exclusion 2) | 982 |  | 443 |  |  | 
23 | GAAUAACAAGCGAGAUCCUACAUGAGGAUCACCCAUGUGCUCGUCUUAUAAAGUACUAUCACGAAAGUGAUAGUACA [Mat - Sensor v3 - turn-off var 1 - Eli Mod - D62] (puzzle: Sensor v3, turn-off variant 1) |  |  |  | 200 | 16.2 | 17.5
24 | AGUUGGCGAGGAUAUACAUGAGGAUCACCCAUGUGAAAUUAAAGUGAGGAAAUGAAAAGUAGAAGGCGCUGACA [Mod of Mat - Jieux - Exclusion 3] (Eterna round: R97, puzzle: Exclusion 3) | 686 |  | 67.7 |  |  | 
25 | CAGUACUGAGGAUAUACAUGAGGAUCACCCAUGUGUUCCAGCUAGGAAAGUAGCAAAAGUAGAAGGCAGUACUG [salish99_ex3_r3_072] (puzzle: Exclusion 3) |  |  |  | 26.7 | 291 | 21.6
26 | UAUUAAUGCAAGGAUAUGCUUUUAAUUUUUUUUGCAGAAGGUGCAACAUGAGGAUCACCCAUGUUUCCGGGUAU [JR_E6_Sub032] (puzzle: Exclusion 6) |  |  |  | 25.7 |  | 
27 | GAGUUAGCGUGAGGAAUAUACAUGAGGAUCACCCAUGUUAACAAAUAUAUUGCUCGUCUUAUAACAACAAUUAACUC [Alarm 8 - Jieux - Sensor, turn-off variant 1] (Eterna round: R97, puzzle: Sensor, turn-off variant 1) | 14.9 |  | 16.5 |  |  | 
28 | ACAUGUAAUGCAGGAUAUGGGACACAUGAGGAUCACCCAUGUGACCAGAUGUAAUGCUAAGAGUCUCAGAAGGGUAUGUACAUG [Ex NG2 #48] (Eterna round: R96, puzzle: Exclusion NG 2) | 17.8 | 13.2 | 17.8 |  |  | 
29 | UUUAAUUUUUUUUUUUUACAAGCUUUUUGCUCGUCUUAUACAUGAGGAUCACCCAUGUGGGUGAGAAAUGAAUUAUC [JMF 93] (puzzle: Sensor v3, turn-off variant 2) |  |  |  | 10.2 | 59.9 | 76.8
30 | CCAUGGGAGCGAGGAUAUAGCCCAUGGGAAGAGCUAGAAGGCGCAGACAUGAGGAUCACCCAUGUGUUCAUGAGGAGGUGGACA (Eterna round: R96, puzzle: Exclusion NG 1) | 95.5 | 47.9 | 73.7 |  |  | 
31 | AAGGGUAAAGGAUAUACAUGAGGAUCACCCAUGUUGAGGAAGGUUAGAUGAGGAGUAAGUAGAAGGUUAGACGA [JR_Exclu3_Sub089] (puzzle: Exclusion 3) |  |  |  | 52.6 | 57.1 | 69.6
32 | GCAAGCUUUUAGGUUUUCAACAUGAGGAUCACCCAUGUUCGUCUUGUGCUCGGGCUUGGGCGGUGUCCGGGUUUGGG [JL TOV1 3.75 sellena mod] (Eterna round: R97, puzzle: Sensor, turn-off variant 1) | 40.4 |  | 43.7 |  |  | 
33 | UUUAGUUCAGGAUAUGAUGAAUUAAACAUGAGGAUCACCCAUGUAGAUCCUGAAUUAACAUCAGAAGGGAACAUUU [JL-ex5-4.48 Brourd mod] (Eterna round: R97, puzzle: Exclusion 5) | 41.8 |  | 15 |  |  | 
34 | GUCCAGAUAGGAUAUUGUAAGGGCAACAUGAGGAUCACCCAUGUCGCAAAGAUCGCCCUUCGAGAAGGGUCCAAUU [Eternabot (L1) Solution 39] (Eterna round: R97, puzzle: Exclusion 5) | 15.7 |  | 17.6 |  |  | 
